Data published in patent publication US20120219562A1.

Target: human interleukin 12 (p70 heterodimer of p35 and p40) (human) (UniProt P29459)
Assay: SPR (BIAcore), off-rate

Chain of human interleukin 12 (p70 heterodimer of p35 and p40) (human) (P29459 23-219, chain 1 of 2): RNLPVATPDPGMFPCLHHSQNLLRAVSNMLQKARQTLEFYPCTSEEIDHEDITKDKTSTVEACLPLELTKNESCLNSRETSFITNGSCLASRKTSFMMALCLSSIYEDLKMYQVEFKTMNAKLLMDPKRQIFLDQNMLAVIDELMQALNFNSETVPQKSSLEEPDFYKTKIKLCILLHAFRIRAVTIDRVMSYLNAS
Chain of human interleukin 12 (p70 heterodimer of p35 and p40) (human) (P29460 23-328, chain 2 of 2, further chain): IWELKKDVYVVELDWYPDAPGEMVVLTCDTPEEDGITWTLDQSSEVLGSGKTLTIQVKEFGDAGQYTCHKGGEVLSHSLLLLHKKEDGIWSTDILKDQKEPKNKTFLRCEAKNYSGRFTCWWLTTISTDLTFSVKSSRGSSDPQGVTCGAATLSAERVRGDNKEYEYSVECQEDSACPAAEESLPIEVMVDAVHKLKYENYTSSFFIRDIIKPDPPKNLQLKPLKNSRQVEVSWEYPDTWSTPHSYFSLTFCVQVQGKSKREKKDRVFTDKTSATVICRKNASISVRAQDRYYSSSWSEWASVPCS

Substance | koff [s⁻¹]
SEQ ID NO: 385 (Y61, Y at H56) (antibody) | 0.00039
SEQ ID NO: 386 (Y61, H at H56) (antibody) | 0.00042
SEQ ID NO: 388 (Y61, T at H56) (antibody) | 0.000235
SEQ ID NO: 389 (Y61, G at H56) (antibody) | 0.000272
SEQ ID NO: 390 (Y61, M at H56) (antibody) | 0.000383
SEQ ID NO: 398 (Y61, N at H58) (antibody) | 0.000831
SEQ ID NO: 399 (Y61, V at H58) (antibody) | 0.000524
SEQ ID NO: 400 (Y61, L at H58) (antibody) | 0.00073
SEQ ID NO: 402 (Y61, P at H58) (antibody) | 0.000628
SEQ ID NO: 403 (Y61, F at H58) (antibody) | 0.000794
SEQ ID NO: 404 (Y61, E at H95) (antibody) | 0.00231
SEQ ID NO: 405 (Y61, S at H95) (antibody) | 0.00193
SEQ ID NO: 409 (Y61, T at H95) (antibody) | 0.00202
SEQ ID NO: 411 (Y61, L at H95) (antibody) | 0.00147
SEQ ID NO: 412 (Y61, P at H95) (antibody) | 0.00471
SEQ ID NO: 413 (Y61, F at H95) (antibody) | 0.00514
SEQ ID NO: 414 (Y61, D at H96) (antibody) | 0.00224
SEQ ID NO: 416 (Y61, H at H96) (antibody) | 0.000237
SEQ ID NO: 417 (Y61, R at H96) (antibody) | 0.000982
SEQ ID NO: 425 (Y61, W at H96) (antibody) | 0.00197

Substance | koff [s⁻¹]
SEQ ID NO: 426 (Y61, D at H97) (antibody) | 0.00202
SEQ ID NO: 428 (Y61, Y at H97) (antibody) | 0.00273
SEQ ID NO: 431 (Y61, N at H97) (antibody) | 0.00221
SEQ ID NO: 434 (Y61, A at H97) (antibody) | 0.00143
SEQ ID NO: 435 (Y61, I at H97) (antibody) | 0.00208
SEQ ID NO: 436 (Y61, P at H97) (antibody) | 0.003
SEQ ID NO: 440 (Y61, R at H98) (antibody) | 0.00034
SEQ ID NO: 441 (Y61, T at H98) (antibody) | 0.000227
SEQ ID NO: 443 (Y61, V at H98) (antibody) | 0.000293
SEQ ID NO: 445 (Y61, I at H98) (antibody) | 0.000343
SEQ ID NO: 451 (Y61, R at H101) (antibody) | 0.0011
SEQ ID NO: 455 (Y61, V at H101) (antibody) | 0.00163
SEQ ID NO: 457 (Y61, S at H102) (antibody) | 0.000325
SEQ ID NO: 459 (Y61, K at H102) (antibody) | 0.000405
SEQ ID NO: 460 (Y61, R at H102) (antibody) | 0.000575
SEQ ID NO: 465 (Y61, L at H102) (antibody) | 0.000956
SEQ ID NO: 466 (Y61, I at H102) (antibody) | 0.000996
SEQ ID NO: 469 (Y61, F at H102) (antibody) | 0.000318
Y61 with H31S→E (antibody) | 0.000219

Second part, the substance after the results:

koff [s⁻¹] | Substance
0.000264 | SEQ ID NO: 391 (Y61, L at H56) (antibody)
0.000169 | SEQ ID NO: 392 (Y61, I at H56) (antibody)
0.000299 | SEQ ID NO: 393 (Y61, P at H56) (antibody)
0.000345 | SEQ ID NO: 394 (Y61, F at H56) (antibody)
0.000416 | SEQ ID NO: 395 (Y61, E at H58) (antibody)
0.000941 | SEQ ID NO: 396 (Y61, S at H58) (antibody)
0.000657 | SEQ ID NO: 401 (Y61, I at H58) (antibody)
0.00228 | SEQ ID NO: 407 (Y61, K at H95) (antibody)
0.0015 | SEQ ID NO: 410 (Y61, A at H95) (antibody)
0.000242 | SEQ ID NO: 415 (Y61, C at H96) (antibody)
0.00204 | SEQ ID NO: 421 (Y61, M at H96) (antibody)
0.00208 | SEQ ID NO: 423 (Y61, I at H96) (antibody)
0.00129 | SEQ ID NO: 424 (Y61, P at H96) (antibody)
0.00191 | SEQ ID NO: 429 (Y61, H at H97) (antibody)
0.00229 | SEQ ID NO: 433 (Y61, G at H97) (antibody)
0.00239 | SEQ ID NO: 437 (Y61, W at H97) (antibody)

koff [s⁻¹] | Substance
0.0018 | SEQ ID NO: 438 (Y61, F at H97) (antibody)
0.000673 | SEQ ID NO: 442 (Y61, A at H98) (antibody)
0.000449 | SEQ ID NO: 448 (Y61, S at H101) (antibody)
0.00327 | SEQ ID NO: 450 (Y61, H at H101) (antibody)
0.00223 | SEQ ID NO: 452 (Y61, N at H101) (antibody)
0.00375 | SEQ ID NO: 453 (Y61, G at H101) (antibody)
0.00106 | SEQ ID NO: 454 (Y61, A at H101) (antibody)
0.00162 | SEQ ID NO: 456 (Y61, I at H101) (antibody)
0.00018 | SEQ ID NO: 458 (Y61, H at H102) (antibody)
0.000333 | SEQ ID NO: 462 (Y61, T at H102) (antibody)
0.000692 | SEQ ID NO: 463 (Y61, G at H102) (antibody)
0.000382 | SEQ ID NO: 464 (Y61, A at H102) (antibody)
0.00181 | SEQ ID NO: 467 (Y61, P at H102) (antibody)
0.000235 | SEQ ID NO: 468 (Y61, W at H102) (antibody)
0.000174 | Y61 with L50→Y (antibody)

Target: human interleukin 12 (recombinant human IL-12, p70 heterodimer) (human) (UniProt P29459)
Sequence (P29459 23-219, chain 1 of 2): as the sequence (P29459 23-219, chain 1 of 2) above
Sequence (P29460 23-328, chain 2 of 2, further chain): as the sequence (P29460 23-328, chain 2 of 2, further chain) above
Assay: cell-based or functional assay

PHA assay IC50 [nM] | Substance
0.06 | Y61-L94F (antibody)
0.08 | Y61-L94N (antibody)
